In US20200261490A1 (AARHUS UNIVERSITET, published 2020):

Experiments:
[1] = biological target: T1, recombinant human stanniocalcin 1, C-terminally myc-his-tagged (human, UniProt P52823 34-247); assay: SPR (Biacore T200); PAPP-A captured by immobilised mAb 234-5, purified STC1 as analyte, global 1:1 Langmuir fit
Procedure: (§1) Surface plasmon resonance experiments were carried out on a Biacore T200 (GE Healthcare). Using amine coupling, purified monoclonal antibody 234-5 was immobilized in flow cells (FC) 3 and 4 of a Series S CM5 Sensor Chip (GE Healthcare). To reach a coupling density of 5,000 response units (RU), the antibody was diluted to 30 μg ml⁻¹ in 10 mM sodium acetate, pH 4.75. Remaining active groups were blocked by a 7 min injection of 1 M ethanolamine, pH 8.0. […] The association phase was 180 s, followed by a 1,000 s dissociation phase. At the end of each binding cycle, both surfaces were regenerated by a 40 s injection of 0.1 M glycine, pH 2.5, and 0.5 M guanidine hydrochloride. […] Binding analysis was performed at 25° C., and data were collected at a rate of 10 Hz. Recorded signals were subtracted the background signal, as determined by the response obtained from the reference cell. Global fitting of a 1:1 Langmuir model was performed, using the Biacore T200 Evaluation Software, version 1.0.

[2] = biological target: T1, recombinant human stanniocalcin 1, …; assay: SPR (Biacore T200), PAPP-A captured by immobilised mAb 234-5, STC1 injected at 0.20-6.26 nM, global 1:1 Langmuir fit
Procedure: as §1

Kd [1]: 0.075 nM
Kd [2]: 0.0749 nM
koff [2]: 0.000208 s⁻¹
kon [2]: 2.78e+06 M⁻¹ s⁻¹
B1: recombinant human PAPP-A (pregnancy-associated plasma protein-A, pappalysin-1) (enzyme)
chain: EARGATEEPSPPSRALYFSGRGEQLRLRADLELPRDAFTLQVWLRAEGGQRSPAVITGLYDKCSYISRDRGWVVGIHTISDQDNKDPRYFFSLKTDRARQVTTINAHRSYLPGQWVYLAATYDGQFMKLYVNGAQVATSGEQVGGIFSPLTQKCKVLMLGGSALNHNYRGYIEHFSLWKVARTQREILSDMETHGAHTALPQLLLQENWDNVKHAWSPMKDGSSPKVEFSNAHGFLLDTSLEPPLCGQTLCDNTEVIASYNQLSSFRQPKVVRYRVVNLYEDDHKNPTVTREQVDFQHHQLAEAFKQYNISWELDVLEVSNSSLRRRLILANCDISKIGDENCDPECNHTLTGHDGGDCRHLRHPAFVKKQHNGVCDMDCNYERFNFDGGECCDPEITNVTQTCFDPDSPHRAYLDVNELKNILKLDGSTHLNIFFAKSSEEELAGVATWPWDKEALMHLGGIVLNPSFYGMPGHTHTMIHEIGHSLGLYHVFRGISEIQSCSDPCMETEPSFETGDLCNDTNPAPKHKSCGDPGPGNDTCGFHSFFNTPYNNFMSYADDDCTDSFTPNQVARMHCYLDLVYQGWQPSRKPAPVALAPQVLGHTTDSVTLEWFPPIDGHFFERELGSACHLCLEGRILVQYASNASSPMPCSPSGHWSPREAEGHPDVEQPCKSSVRTWSPNSAVNPHTVPPACPEPQGCYLELEFLYPLVPESLTIWVTFVSTDWDSSGAVNDIKLLAVSGKNISLGPQNVFCDVPLTIRLWDVGEEVYGIQIYTLDEHLEIDAAMLTSTADTPLCLQCKPLKYKVVRDPPLQMDVASILHLNRKFVDMDLNLGSVYQYWVITISGTEESEPSPAVTYIHGSGYCGDGIIQKDQGEQCDDMNKINGDGCSLFCRQEVSFNCIDEPSRCYFHDGDGVCEEFEQKTSIKDCGVYTPQGFLDQWASNASVSHQDQQCPGWVIIGQPAASQVCRTKVIDLSEGISQHAWYPCTISYPYSQLAQTTFWLRAYFSQPMVAAAVIVHLVTDGTYYGDQKQETISVQLLDTKDQSHDLGLHVLSCRNNPLIIPVVHDLSQPFYHSQAVRVSFSSPLVAISGVALRSFDNFDPVTLSSCQRGETYSPAEQSCVHFACEKTDCPELAVENASLNCSSSDRYHGAQCTVSCRTGYVLQIRRDDELIKSQTGPSVTVTCTEGKWNKQVACEPVDCSIPDHHQVYAASFSCPEGTTFGSQCSFQCRHPAQLKGNNSLLTCMEDGLWSFPEALCELMCLAPPPVPNADLQTARCRENKHKVGSFCKYKCKPGYHVPGSSRKSKKRAFKTQCTQDGSWQEGACVPVTCDPPPPKFHGLYQCTNGFQFNSECRIKCEDSDASQGLGSNVIHCRKDGTWNGSFHVCQEMQGQCSVPNELNSNLKLQCPDGYAIGSECATSCLDHNSESIILPMNVTVRDIPHWLNPTRVERVVCTAGLKWYPHPALIHCVKGCEPFMGDNYCDAINNRAFCNYDGGDCCTSTVKTKKVTPFPMSCDLQGDCACRDPQAQEHSRKDLRGYSHG
notes: Secreted from transfected HEK293T cells and used in culture medium; also called wt PAPP-A; huPAPP-A
